Measurements: the supplement of paper PMC9112550, “Optimization of the antimicrobial peptide Bac7 by deep mutational scanning” (BMC Biology, 2022)

system: Escherichia coli TOP10; test: shrunken log2 fold change of peptide-encoding DNA abundance (4.5 h post-induction vs induction); higher = less antimicrobial activity (less host growth inhibition); conditions: time post-induction: 4.5 h; library: site-saturation at positions 5, 18, 19, 20
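Note: peptides expressed intracellularly from a pBAD plasmid library in pooled LB shake-flask culture, induced with 0.3% L-arabinose, DNA abundance read by NGS, three biological replicates, DESeq2 with apeglm shrinkage.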

| Sequence | shrunken log2 fold change |
| --- | --- |
| RRIRRRPPRLPRPRPRPGPHPRP | 0.437 |
| RRIRSRPPRLPRPRPRPAHAPRP | 0.121 |
| RRIRTRPPRLPRPRPRPMIRPRP | -0.0798 |
| RRIRMRPPRLPRPRPRPMWSPRP | -0.027 |
| RRIRDRPPRLPRPRPRPWDYPRP | -0.00965 |
| RRIRRRPPRLPRPRPRPRWTPRP | 0.453 |
| RRIRDRPPRLPRPRPRPHTGPRP | -0.0359 |
| RRIRDRPPRLPRPRPRPHKLPRP | 0.00695 |
| RRIRVRPPRLPRPRPRPLITPRP | -0.439 |
| RRIRGRPPRLPRPRPRPLWKPRP | 0.819 |
| RRIRPRPPRLPRPRPRPCLFPRP | -0.357 |
| RRIRTRPPRLPRPRPRPWIGPRP | -0.233 |
| RRIRTRPPRLPRPRPRPDCVPRP | -0.128 |
| RRIRHRPPRLPRPRPRPANWPRP | 0.135 |
| RRIRDRPPRLPRPRPRPWQAPRP | -0.0194 |
| RRIRSRPPRLPRPRPRPKPYPRP | -0.153 |
| RRIRSRPPRLPRPRPRPQFRPRP | -0.0597 |
| RRIRHRPPRLPRPRPRPSVFPRP | -0.424 |
| RRIRVRPPRLPRPRPRPFRPPRP | -0.324 |
| RRIRLRPPRLPRPRPRPRCKPRP | 0.0707 |
| RRIRKRPPRLPRPRPRPRSRPRP | 0.418 |
| RRIRVRPPRLPRPRPRPGQYPRP | -0.113 |
| RRIRRRPPRLPRPRPRPDRPPRP | 0.13 |
| RRIRLRPPRLPRPRPRPCEFPRP | -0.032 |
| RRIRPRPPRLPRPRPRPSPSPRP | 0.132 |

| Sequence | shrunken log2 fold change |
| --- | --- |
| RRIRTRPPRLPRPRPRPLNVPRP | -0.0675 |
| RRIRGRPPRLPRPRPRPNGIPRP | 0.287 |
| RRIRERPPRLPRPRPRPANIPRP | -0.465 |
| RRIRIRPPRLPRPRPRPHPFPRP | -0.583 |
| RRIRGRPPRLPRPRPRPSVLPRP | 0.389 |
| RRIRTRPPRLPRPRPRPEERPRP | 0.12 |
| RRIRPRPPRLPRPRPRPSIHPRP | -0.974 |
| RRIRQRPPRLPRPRPRPTMSPRP | 0.0272 |
| RRIRHRPPRLPRPRPRPDLGPRP | 0.0527 |
| RRIRARPPRLPRPRPRPTADPRP | 0.83 |
| RRIRRRPPRLPRPRPRPPNHPRP | 0.234 |
| RRIRYRPPRLPRPRPRPQNCPRP | -0.0075 |
| RRIRYRPPRLPRPRPRPKDQPRP | -0.48 |
| RRIRARPPRLPRPRPRPRSQPRP | 0.00929 |
| RRIRMRPPRLPRPRPRPHLPPRP | -0.00448 |
| RRIRCRPPRLPRPRPRPGIFPRP | 0.0252 |
| RRIRCRPPRLPRPRPRPDQLPRP | 0.101 |
| RRIRERPPRLPRPRPRPRFGPRP | 0.152 |
| RRIRARPPRLPRPRPRPLTWPRP | 0.272 |
| RRIRQRPPRLPRPRPRPIGGPRP | -0.0328 |
| RRIRFRPPRLPRPRPRPGEYPRP | -0.114 |
| RRIRRRPPRLPRPRPRPAYQPRP | -0.289 |
| RRIRQRPPRLPRPRPRPMHEPRP | 0.187 |
| RRIRFRPPRLPRPRPRPIKYPRP | -0.335 |
| RRIRLRPPRLPRPRPRPKRPPRP | -0.0353 |

| Sequence | shrunken log2 fold change |
| --- | --- |
| RRIRARPPRLPRPRPRPCFEPRP | 0.438 |
| RRIRARPPRLPRPRPRPAATPRP | 0.914 |
| RRIRQRPPRLPRPRPRPHRTPRP | -0.0723 |
| RRIRGRPPRLPRPRPRPWEEPRP | -0.0105 |
| RRIRPRPPRLPRPRPRPQLYPRP | -0.0926 |
| RRIRHRPPRLPRPRPRPTMEPRP | -0.0987 |
| RRIRVRPPRLPRPRPRPAHDPRP | 0.113 |
| RRIRQRPPRLPRPRPRPAMMPRP | 0.00621 |
| RRIRVRPPRLPRPRPRPSVTPRP | -0.222 |
| RRIRKRPPRLPRPRPRPIEMPRP | -0.202 |
| RRIRNRPPRLPRPRPRPLLMPRP | -0.421 |
| RRIRYRPPRLPRPRPRPVTDPRP | -0.418 |
| RRIRDRPPRLPRPRPRPHHWPRP | 0.172 |
| RRIRARPPRLPRPRPRPMPHPRP | 0.145 |
| RRIRNRPPRLPRPRPRPQPDPRP | -0.0718 |
| RRIRFRPPRLPRPRPRPRSRPRP | -0.016 |
| RRIRVRPPRLPRPRPRPHCHPRP | -0.105 |
| RRIRIRPPRLPRPRPRPVLFPRP | -0.357 |
| RRIRHRPPRLPRPRPRPMLEPRP | 0.0721 |
| RRIRCRPPRLPRPRPRPFIYPRP | -0.808 |
| RRIRQRPPRLPRPRPRPSQMPRP | -0.0442 |
| RRIRFRPPRLPRPRPRPCQCPRP | -0.035 |
| RRIRVRPPRLPRPRPRPYGRPRP | -0.0856 |
| RRIRIRPPRLPRPRPRPVVSPRP | -0.503 |
| RRIRERPPRLPRPRPRPGILPRP | -0.304 |

| Sequence | shrunken log2 fold change |
| --- | --- |
| RRIRKRPPRLPRPRPRPQATPRP | 0.0984 |
| RRIRHRPPRLPRPRPRPGPSPRP | 0.188 |
| RRIRNRPPRLPRPRPRPGFDPRP | 0.189 |
| RRIRVRPPRLPRPRPRPPISPRP | 0.0369 |
| RRIRQRPPRLPRPRPRPQHTPRP | -0.69 |
| RRIRWRPPRLPRPRPRPQSIPRP | -0.584 |
| RRIRRRPPRLPRPRPRPSSSPRP | 0.133 |
| RRIRVRPPRLPRPRPRPNLEPRP | 0.0543 |
| RRIRSRPPRLPRPRPRPMITPRP | -0.19 |
| RRIRKRPPRLPRPRPRPMNWPRP | 0.134 |
| RRIRVRPPRLPRPRPRPPCPPRP | 0.0333 |
| RRIRWRPPRLPRPRPRPWAVPRP | 0.0624 |
| RRIRPRPPRLPRPRPRPGHGPRP | 0.296 |
| RRIRIRPPRLPRPRPRPVNAPRP | -0.113 |
| RRIRSRPPRLPRPRPRPGGVPRP | 0.326 |
| RRIRTRPPRLPRPRPRPQSRPRP | -0.0689 |
| RRIRERPPRLPRPRPRPWNAPRP | 0.0455 |
| RRIRSRPPRLPRPRPRPGHLPRP | -0.236 |
| RRIRDRPPRLPRPRPRPCRCPRP | 0.0101 |
| RRIRNRPPRLPRPRPRPAELPRP | -0.0198 |
| RRIRPRPPRLPRPRPRPPISPRP | -0.0159 |
| RRIRNRPPRLPRPRPRPFRDPRP | 0.0452 |
| RRIRYRPPRLPRPRPRPHFWPRP | -0.257 |
| RRIRTRPPRLPRPRPRPPMAPRP | 0.176 |
| RRIRWRPPRLPRPRPRPWVRPRP | -0.172 |

| Sequence | shrunken log2 fold change |
| --- | --- |
| RRIRFRPPRLPRPRPRPSAQPRP | 0.24 |
| RRIRWRPPRLPRPRPRPLRKPRP | 0.944 |
| RRIRGRPPRLPRPRPRPITSPRP | 0.0724 |
| RRIRGRPPRLPRPRPRPQGFPRP | 0.441 |
| RRIRCRPPRLPRPRPRPSWEPRP | -0.0769 |
| RRIRNRPPRLPRPRPRPYNNPRP | -1.19 |
| RRIRLRPPRLPRPRPRPRYPPRP | 0.318 |
| RRIRDRPPRLPRPRPRPCTWPRP | 0.0101 |
| RRIRLRPPRLPRPRPRPMAGPRP | 0.208 |
| RRIRCRPPRLPRPRPRPEYLPRP | -0.258 |
| RRIRERPPRLPRPRPRPITDPRP | -0.00102 |
| RRIRNRPPRLPRPRPRPDCNPRP | -0.0899 |
| RRIRPRPPRLPRPRPRPQRAPRP | 0.381 |
| RRIRIRPPRLPRPRPRPAEGPRP | -0.122 |
| RRIRARPPRLPRPRPRPREHPRP | 0.376 |
| RRIRMRPPRLPRPRPRPQFMPRP | -0.241 |
| RRIRMRPPRLPRPRPRPHSMPRP | -0.0253 |
| RRIRCRPPRLPRPRPRPDYLPRP | 0.0148 |
| RRIRIRPPRLPRPRPRPSKHPRP | -0.813 |
| RRIRSRPPRLPRPRPRPHGCPRP | -0.0029 |
| RRIRCRPPRLPRPRPRPSGNPRP | -0.598 |
| RRIRERPPRLPRPRPRPYVDPRP | -0.0122 |
| RRIRFRPPRLPRPRPRPHCLPRP | -0.377 |
| RRIRFRPPRLPRPRPRPWIRPRP | -0.205 |
| RRIRFRPPRLPRPRPRPTEEPRP | 0.0249 |

| Sequence | shrunken log2 fold change |
| --- | --- |
| RRIRIRPPRLPRPRPRPCVIPRP | -0.0683 |
| RRIRIRPPRLPRPRPRPCYMPRP | -0.49 |
| RRIRQRPPRLPRPRPRPVPTPRP | 0.0766 |
| RRIRWRPPRLPRPRPRPSVTPRP | 0.145 |
| RRIRYRPPRLPRPRPRPAQNPRP | -0.0465 |
| RRIRKRPPRLPRPRPRPRREPRP | 0.853 |
| RRIRPRPPRLPRPRPRPLMHPRP | -0.0913 |
| RRIRVRPPRLPRPRPRPWAWPRP | -0.00558 |
| RRIRHRPPRLPRPRPRPKYGPRP | 0.0196 |
| RRIRMRPPRLPRPRPRPRSIPRP | 0.667 |
| RRIRPRPPRLPRPRPRPIMKPRP | -0.411 |
| RRIRMRPPRLPRPRPRPARHPRP | 0.974 |
| RRIRWRPPRLPRPRPRPCVTPRP | 0.024 |
| RRIRSRPPRLPRPRPRPDAWPRP | 0.545 |
| RRIRKRPPRLPRPRPRPRGFPRP | 0.18 |
| RRIRERPPRLPRPRPRPIYNPRP | -0.85 |
| RRIRYRPPRLPRPRPRPSTSPRP | 1.42 |
| RRIRHRPPRLPRPRPRPWITPRP | -0.118 |
| RRIRLRPPRLPRPRPRPWRGPRP | 0.277 |
| RRIRPRPPRLPRPRPRPGFWPRP | 0.61 |
| RRIRDRPPRLPRPRPRPWNKPRP | -0.117 |
| RRIRWRPPRLPRPRPRPGEMPRP | 0.0495 |
| RRIRARPPRLPRPRPRPAHCPRP | 0.433 |
| RRIRHRPPRLPRPRPRPVVSPRP | -0.137 |
| RRIRNRPPRLPRPRPRPAWHPRP | 0.259 |
